Laboratory results as given in patent US11814435B2, “Therapeutic antibodies and their uses” (PFIZER INC., priority 2015, dated 2023).

T1: hBCMA (human BCMA) (Homo sapiens, UniProt Q02223)
T1 sequence (Q02223 1-184): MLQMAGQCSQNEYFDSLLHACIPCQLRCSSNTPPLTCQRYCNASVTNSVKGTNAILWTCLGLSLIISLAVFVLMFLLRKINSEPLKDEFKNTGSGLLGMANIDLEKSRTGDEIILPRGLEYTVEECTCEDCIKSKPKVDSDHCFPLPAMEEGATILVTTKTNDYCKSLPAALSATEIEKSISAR


Columns and labels:
Cyno BCMA = assay: Kinetics and affinity of cyno BCMA/human IgG interactions by SPR (Bio-Rad Proteon XPR36); assay type: binding, cynomolgus; conditions: 37° C.
hBCMA (human BCMA) = molecular target: T1, hBCMA (human BCMA); assay: Kinetics and affinity of hBCMA/human IgG interactions by SPR (Bio-Rad Proteon XPR36); assay type: binding; conditions: human BCMA, 37° C.
How it was run: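 Captured here: binding of soluble BCMA to covalently coupled anti-BCMA IgGs, measured at 37° C. or 25° C. with a five-point single-cycle series (top 50 nM, fivefold dilution) and extended 2 h off-rate phase, analyzed by a 1:1 mass-transport-corrected model.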

kd Cyno (Cyno BCMA) [s⁻¹]	ka Human (hBCMA (human BCMA)) [M⁻¹ s⁻¹]	kd Human (hBCMA (human BCMA)) [s⁻¹]	Molecule	ka Cyno (Cyno BCMA) [M⁻¹ s⁻¹]
0.000284	7.65e+06	0.000146	COMBO_Rd4_0.6 nM_C20: anti-BCMA antibody (antibody, V domains shown) VH: EVQLLESGGGLVQPGGSLRLSCAASGFTFSSYPMSWVRQAPGKGLEWVSAIGGSGGSLPYADSVKGRFTISRDNSKNTLYLQMNSLRAEDTAVYYCARYWPMDSWGQGTLVTVSS VL: EIVLTQSPGTLSLSPGERATLSCRASQSVSYLYLAWYQQKPGQAPRLLMYDASIRATGIPDRFSGSGSGTDFTLTISRLEPEDFAVYYCQQYMEWPLTFGQGTKVEIK	3.09e+06
0.000645	8.66e+06	0.000328	COMBO_Rd4_0.6 nM_C14: anti-BCMA antibody (antibody, V domains shown) VH: EVQLLESGGGLVQPGGSLRLSCAASGFTFSSYPMSWVRQAPGKGLEWVSAIGGSGGSLPYADSVKGRFTISRDNSKNTLYLQMNSLRAEDTAVYYCARYWPMDIWGQGTLVTVSS VL: EIVLTQSPGTLSLSPGERATLSCRASQSVSALYLAWYQQKPGQAPRLLMYDASIRATGIPDRFSGSGSGTDFTLTISRLEPEDFAVYYCQQYYGWPLTFGQGTKVEIK	3.48e+06
0.00101	8.68e+06	0.000801	COMBO_Rd4_0.6 nM_C17: anti-BCMA antibody (antibody, V domains shown) VH: EVQLLESGGGLVQPGGSLRLSCAASGFTFSSYPMSWVRQAPGKGLEWVSAIGGSGGSLPYADSVKGRFTISRDNSKNTLYLQMNSLRAEDTAVYYCARYWPMDIWGQGTLVTVSS VL: EIVLTQSPGTLSLSPGERATLSCRASQGISSTYLAWYQQKPGQAPRLLMYDASIRATGIPDRFSGSGSGTDFTLTISRLEPEDFAVYYCQQYAYWPLTFGQGTKVEIK	3.06e+06
0.000494	8.57e+06	0.000185	COMBO_Rd4_0.6 nM_C02: anti-BCMA antibody (antibody, V domains shown) VH: EVQLLESGGGLVQPGGSLRLSCAASGFTFSSYPMSWVRQAPGKGLEWVSAIGGSGGSLPYADSVKGRFTISRDNSKNTLYLQMNSLRAEDTAVYYCARYWPMDSWGQGTLVTVSS VL: EIVLTQSPGTLSLSPGERATLSCRASIAVSSTYLAWYQQKPGQAPRLLMYDASIRATGIPDRFSGSGSGTDFTLTISRLEPEDFAVYYCQQYMVWPLTFGQGTKVEIK	3.01e+06
0.000346	1.04e+07	0.000319	COMBO_Rd4_0.6 nM_C09: anti-BCMA antibody (antibody, V domains shown) VH: EVQLLESGGGLVQPGGSLRLSCAASGFTFSSYPMSWVRQAPGKGLEWVSAIGGSGGSLPYADSVKGRFTISRDNSKNTLYLQMNSLRAEDTAVYYCARYWPMDIWGQGTLVTVSS VL: EIVLTQSPGTLSLSPGERATLSCRASQSVSSTYLAWYQQKPGQAPRLLMYDASIRATGIPDRFSGSGSGTDFTLTISRLEPEDFAVYYCQQYQEWPLTFGQGTKVEIK	3.77e+06
0.000934	1.05e+07	0.000371	COMBO_Rd4_6 nM_C07: anti-BCMA antibody (antibody, V domains shown) VH: EVQLLESGGGLVQPGGSLRLSCAASGFTFSSYPMSWVRQAPGKGLEWVSAIGGSGGSLPYADSVKGRFTISRDNSKNTLYLQMNSLRAEDTAVYYCARYWPMADWGQGTLVTVSS VL: EIVLTQSPGTLSLSPGERATLSCRASQPISSSYLAWYQQKPGQAPRLLMYDASIRATGIPDRFSGSGSGTDFTLTISRLEPEDFAVYYCQQYQGWPLTFGQGTKVEIK	3.94e+06
0.000979	7.86e+06	0.000155	COMBO_Rd4_0.6 nM_C19: anti-BCMA antibody (antibody, V domains shown) VH: EVQLLESGGGLVQPGGSLRLSCAASGFTFSSYPMSWVRQAPGKGLEWVSAIGGSGGSLPYADSVKGRFTISRDNSKNTLYLQMNSLRAEDTAVYYCARYWPMDSWGQGTLVTVSS VL: EIVLTQSPGTLSLSPGERATLSCRASQSVSAVYLAWYQQKPGQAPRLLMYDASIRATGIPDRFSGSGSGTDFTLTISRLEPEDFAVYYCQQYRAWPLTFGQGTKVEIK	2.92e+06
0.00172	4.32e+06	0.000497	COMBO_Rd4_0.6 nM_C05: anti-BCMA antibody (antibody, V domains shown) VH: EVQLLESGGGLVQPGGSLRLSCAASGFTFSSYAMNWVRQAPGKGLEWVSAIGGSGGSTYYADSVKGRFTISRDNSKNTLYLQMNSLRAEDTAVYYCARYWPMSLWGQGTLVTVSS VL: EIVLTQSPGTLSLSPGERATLSCRASQSVSSTYLAWYQQKPGQAPRLLMYDASIRATGIPDRFSGSGSGTDFTLTISRLEPEDFAVYYCQQYMSWPLTFGQGTKVEIK	1.94e+06
0.000531	7.39e+06	0.00021	COMBO_Rd4_0.6 nM_C23: anti-BCMA antibody (antibody, V domains shown) VH: EVQLLESGGGLVQPGGSLRLSCAASGFTFSSYPMSWVRQAPGKGLEWVSALFGSGGSTYYADSVKGRFTISRDNSKNTLYLQMNSLRAEDTAVYYCARYWPMDSWGQGTLVTVSS VL: EIVLTQSPGTLSLSPGERATLSCRPRQSVSSSYLAWYQQKPGQAPRLLMYDASIRATGIPDRFSGSGSGTDFTLTISRLEPEDFAVYYCQQYQDWPLTFGQGTKVEIK	2.81e+06
0.000428	8.99e+06	0.000169	COMBO_Rd4_6 nM_C08: anti-BCMA antibody (antibody, V domains shown) VH: EVQLLESGGGLVQPGGSLRLSCAASGFTFSSYPMSWVRQAPGKGLEWVSAIGGSGTWTYYADSVKGRFTISRDNSKNTLYLQMNSLRAEDTAVYYCARYWPMDSWGQGTLVTVSS VL: EIVLTQSPGTLSLSPGERATLSCRASQSVSSSYLAWYQQKPGQAPRLLMYDASIRATGIPDRFSGSGSGTDFTLTISRLEPEDFAVYYCQQYQKWPLTFGQGTKVEIK	3.06e+06
0.0164	6.96e+06	0.0387	P5A2_VHVL: anti-BCMA antibody (antibody, V domains shown) VH: EVQLLESGGGLVQPGGSLRLSCAASGFTFSSYAMNWVRQAPGKGLEWVSAISDSGGSTYYADSVKGRFTISRDNSKNTLYLQMNSLRAEDTAVYYCARYWPMDIWGQGTLVTVSS VL: EIVLTQSPGTLSLSPGERATLSCRASQSVSSSYLAWYQQKPGQAPRLLMYDASIRATGIPDRFSGSGSGTDFTLTISRLEPEDFAVYYCQQYGSWPLTFGQGTKVEIK	1.61e+06
0.000486	1.38e+07	0.00027	COMBO_Rd4_6 nM_C12: anti-BCMA antibody (antibody, V domains shown) VH: EVQLLESGGGLVQPGGSLRLSCAASGFTFSSYPMSWVRQAPGKGLEWVSAALGSGGSTYYADSVKGRFTISRDNSKNTLYLQMNSLRAEDTAVYYCARYWPMDSWGQGTLVTVS VL: EIVLTQSPGTLSLSPGERATLSCRASQSVSASYLAWYQQKPGQAPRLLMYDASIRATGIPDRFSGSGSGTDFTLTISRLEPEDFAVYYCQQYMSWPLTFGQGTKVEIK	3.29e+06
0.00136	1.05e+06	0.000443	COMBO_Rd4_6 nM_C02: anti-BCMA antibody (antibody, V domains shown) VH: EVQLLESGGGLVQPGGSLRLSCAASGFTFSSYAMNWVRQAPGKGLEWVSAISDSGGFVYYADSVKGRFTISRDNSKNTLYLQMNSLRAEDTAVYYCARYWPMDSWGQGTLVTVSS VL: EIVLTQSPGTLSLSPGERATLSCRASQSVSSSYLAWYQQKPGQAPRLLMYDASIRATGIPDRFSGSGSGTDFTLTISRLEPEDFAVYYCQQYEFWPLTFGQGTKVEIK	795000
0.000808	4.35e+06	0.000282	COMBO_Rd4_0.6 nM_C30: anti-BCMA antibody (antibody, V domains shown) VH: EVQLLESGGGLVQPGGSLRLSCAASGFTFSSYPMSWVRQAPGKGLEWVSAIGGSGGSTYYADSVKGRFTISRDNSKNTLYLQMNSLRAEDTAVYYCARYWPMDSWGQGTLVTVSS VL: EIVLTQSPGTLSLSPGERATLSCRASQSVSYMYLAWYQQKPGQAPRLLIYDASIRATGIPDRFSGSGSGTDFTLTISRLEPEDFAVYYCQQYKSWPLTFGQGTKVEIK	1.68e+06
0.000318	8.85e+06	0.000143	COMBO_Rd4_6 nM_C09: anti-BCMA antibody (antibody, V domains shown) VH: EVQLLESGGGLVQPGGSLRLSCAASGFTFSSYPMSWVRQAPGKGLEWVSAIFASGGSTYYADSVKGRFTISRDNSKNTLYLQMNSLRAEDTAVYYCARYWPMDSWGQGTLVTVSS VL: EIVLTQSPGTLSLSPGERATLSCRASQSVSAQYLAWYQQKPGQAPRLLMYDASIRATGIPDRFSGSGSGTDFTLTISRLEPEDFAVYYCQQYQAWPLTFGQGTKVEIK	2.37e+06
